One may read the stoichiometry N as the number of molecules, sites or subunits per partner or assembly.

Fold decrease in binding affinity and stoichiometry N data for one substance are collected here from article doi:10.1101/2024.08.29.610253.

For experiment [1], the target named is interface II mutations (CC2N and C2B variants, ITC). Put plainly: ITC. (In ITC the heat of successive injections is recorded.)
Experiment [2] concerns the target liprin-α2_CC2N E380R (human) (UniProt O75334). Put plainly: ITC.
Experiment [3] deals with RIM1_C2B (rat). In words: SEC-MALS. (In general: Size exclusion chromatography separates by hydrodynamic size, large species first.)

Sequence of liprin-α2_CC2N E380R (human) (O75334 300-404 E380R): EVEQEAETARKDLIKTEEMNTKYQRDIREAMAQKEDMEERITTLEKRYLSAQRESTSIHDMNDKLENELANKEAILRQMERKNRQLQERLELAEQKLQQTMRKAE

For RIM1_C2B (domain or fragment), the figures for the fold decrease in binding affinity in experiment [1] and in experiment [2] were 5 fold and 2 fold, respectively. The substance further gave a stoichiometry N in experiment [3] of 2.
